The series is described as follows: label from the status in PepcDB records.

These results are taken from a protein production outcome set (Wang et al. 2014).

As for “MRLEGEGRSARAGQNLSRAGSARRGAPRDLSMNNLTELQPGLFHHLRFLEELRLSGNHLSHIPGQAFSGLYSLKILMLQNNQLGGIPAEALWELPSLQSLDLNYNKLQEFPVAIRTLGRLQELGFHNNNIKAIPEKAFMGNPLLQTIHFYDNPIQFVGRSAFQYLPKLHTLSLNGAMDIQEFPDLKGTTSLEILTLTRAGIRLLPSGMCQQLPRLRVLELSHNQIEELPSLHRCQKLEEIGLQHNRIWEIGADTFSQLSSLQALDLSWNAIRSIHPEAFSTLHSLVKLDLTDNQLTTLPLAGLGGLMHLKLKGNLALSQAFSKDSFPKLRILEVPYAYQCCPYGMCASFFKASGQWEAEDLHLDDEESSKRPLGLLARQAENHYDQDLDELQLEMEDSKPHPSVQCSPTPGPFKPCEYLFESWGIRLAVWAIVLLSVLCNGLVLLTVFAGGPVPLPPVKFVVGAIAGANTLTGISCGLLASVDALTFGQFSEYGARWETGLGCRATGFLAVLGSEASVLLLTLAAVQCSVSVSCVRAYGKSPSLGSVRAGVLGCLALAGLAAALPLASVGEYGASPLCLPYAPPEGQPAALGFTVALVMMNSFCFLVVAGAYIKLYCDLPRGDFEAVWDCAMVRHVAWLIFADGLLYCPVAFLSFASMLGLFPVTPEAVKSVLLVVLPLPACLNPLLYLLFNPHFRDDLRRLRPRAGDSGPLAYAAAGELEKSSCDSTQALVAFSDVDLILEASEAGRPPGLETYGFPSVTLISCQQPGAPRLEGSHCVEPEGNHFGNPQPSMDGELLLRAEGSTPAGGGLSGGGGFQPSGLAFASHV”, the protein production result was “failed”. Consider “MRLEKFIHLLGERGFDGALISPGTNLYYLTGLRLHEVGERLAILAVSAEGDYRFLAPSLYENVVNNFPATFWHDGENPYAKLREILEELGISKGRILIEDTMRADWLIGIMKLGKFTFQPLSSLIKELRMIKDKEEVKMMEHASRIADKVFEEILTWDLIGMKERELALKIELLIRELSDGIAFEPIVASGENAANPHHEPGERKIRKGDIIILDYGARWKGYCSDITRTIGLGELDERLVKIYEVVKDAQESAFKAVREGIKAKDVDSRAREVISKAGYGEYFIHRTGHGLGLDVHEEPYIGPDGEVILKNGMTFTIEPGIYVPGLGGVRIEDDIVVDEGKGRRLTKAERELIIL”, for which the protein production entry is recorded as “not failed”. In the case of “MRLFSIPPPTLLAGFLAVLIGYASSAAIIWQAAIVAGATTAQISGWMTALGLAMGVSTLTLTLWYRVPVLTAWSTPGAALLVTGLQGLTLNEAIGVFIVTNALIVLCGITGLFARLMRIIPHSLAAAMLAGILLRFGLQAFASLDGQFTLCGSMLLVWLATKAVAPRYAVIAAMIIGIVIVIAQGDVVTTDVVFKPVLPTYITPDFSFAHSLSVALPLFLVTMASQNAPGIAAMKAAGYSAPVSPLIVFTGLLALVFSPFGVYSVGIAAITAAICQSPEAHPDKDQRWLAAAVAGIFYLLAGLFGSAITGMMAALPVSWIQMLAGLALLSTIGGSLYQALHNERERDAAVVAFLVTASGLTLVGIGSAFWGLIAGGVCYVVLNLIADRNRY”, the protein production result is “failed”. For “MRLLISLIAGALFGGGLFVSGMTDTRKVQGWLDVFGDWDPTLAFVMGGAILPMLLAWRLTEGRKPLAGGSFPALPRPEMDHRLITGSVLFGMGWGLAGLCPGPAIASLSYGGVGGLIFLVAMLAGMAVAPRVGTQLDRLAATA”, the protein production entry is “failed”. Consider “MRLNHNSYEIFDFMRSRSAIGVLSKIIITIPPINLRMIIGVMGPEGSYSERAAKLWARKNGLRGAEFHYFADIEDAFLAAVGGKTDISVVPVENSIEGSVGVTLDLLLENEAVIIGEIVVKIEHCLLSKGEPEKIRVILSHPQGLAQCRHFLKTHFPEAELRSTGSTSHAARLAGEFEEMAAIASPEAAERYGLKILLSNVQDRKENHTRFIVVRGGEKVLSGKIKGKADSGEKLNTVFGRNAEHKLCSETETGTENSSSYAFKTSLIVYLEKDRPGALYEPLGFFAKRGINLTKIESRPSKKELGDYYFYIDLEGNISDVLIKDALEDIKSKASKKSRSSTLKVLGSYPAFKK”, for which the protein production entry was “failed”.

As to “MRLQELVLVKISLVFLWLIGFVFLQRSEENGFEEPNNGEELSWDDLEREAASNISSKRSHAERSHQHESFTKGDELSGDLYELWRQEQNSIAARLDKELKSRWELDELIEEQLSRYQSHYDNSMVSTFLKDVSNLVLPTWIPPHELAAVAWLGDWRPTSILDLVRILAAQNPSFSLSESSLRVLSQLLREIRIEEAVIDEEYAEIQATGVLYLPFSPLCNTRLHEEALRSVQELFGNIHKVISKAQRLRYKVLELVMKKLLNQTDTAEFVVAFAGIQDAIHQFGEQKKLRKIYPAVPSPLKGSGSSS”, the protein production entry is listed as “not failed”.

For the sequence “MRLSISLGESPCISSLKVRGFTASPQTPNLSISVIVTAFNRREYLRYALLSLKNQEADSFEVVVSKNFSDRVTDKFCSENGFINVTTDSSRSGERVYDALRSSHGDFILFLDDDDIFRRTKISRVSDVISKRNVAFYRNAIFPVTVDGVIATHYQPQMHDPLYLILERVSDVRLLHRHACDFNSSSMGISRSMLDSHASDLRKINLAVDTFYFALAASSRMPLFCDSMIESIYRIMPSSTSRDLRDFYLFSRFERSFLRRYVPDLERIAEIVEGSPAKPVIGRMLSLYKILQYVFEEDRVNLKPSPLDRVRFLLERPFPYSLLYSRIFRDAAMRSEFRRENRIVYGNADRRRRLEHHHHHH”, the protein production result was “not failed”. In the case of “MRLVEIGRFGAPYALKGGLRFRGEPVVLHLERVYVEGHGWRAIEDLYRVGEELVVHLAGVTDRTLAEALVGLRVYAEVADLPPLEEGRYYYFALIGLPVYVEGRQVGEVVDILDAGAQDVLIIRGVGERLRDRAERLVPLQAPYVRVEEGSIHVDPIPGLFD”, the protein production result is “not failed”. As for “MRLVIHGKNIDITDGIRSYLNQKIERATSHFQNVINEVDVHLSVARNRSTAPKQTAEVTVFVNGSVIRAEESSENLYASIDLVADKIARKLRKLKEKRQDKSRAKDTNSVVEPEVVTDLVGDRTPQLPEQVVRMKYFAMPPMTIQEALEHLEMVDHDFYVFRNRDTGEINVVYERNHGGYGVIQPRPTSNNHHHNTADAAAKATAKAGPLEHHHHHH”, the protein production entry is “not failed”. The result for “MRMNMKKISLSLLTLGVLSGLSINASALPADFPVMPAATAPVSQYVTAVNADSSITFRLFAPTAKQVSVFTGSTPDSIVSHAMTKDEAGVWSFKTPVQAPNLYEYFFSVDGFRTIDTGTAFTKPQRQVNTSLILVPGSILDVRQIPHGELRTLTYHSNALKSERQMYVWTPPGYSESSKPLPVLYFYHGFGDTGASAVVQGRIPQMMDNLLAEKKIEPMLVVIPDTETDVPGIIPEEYPPQERRKVFYPRNALAADRELIHDIIPAIGKRFNVRQDANGRALAGLSQGGYQALVSGMSHLDHFGWLATFSGVTTETVPNMAVAAQLERPEQINQQLKNLTVVIGETDNITGKDIAGLKTMLEQKNIRFDYTHYPNLGHEMDVWRPAYSEFVQKLFK” reads “failed”. The value for “MRNDLFNREKSRQLSLTPRTEKIEVKHVGKTDPGTVFVMNKNISTPYSCAMHLSEWYCSKSILALVDGQPWDMYKPLTKSCEIKFLTFKDPDPREVNKAYWRSCAMMLGCVIERAFKDDYVVSLLRAPEVPVIAGAFCYDVTLDKRLDEWMPTKENLRSFTKDAHALIYRDLPFETLDVDARVALEIFQHNKYKVDFIEEKASQNPERIVKLHRIGDFIDVSEGPLIPRTSVCFQYEVSAVHNLNPSQPNLIRRFQGLSLPTHLRAQFTIWDKLVGRSRKMVTEDEVRQTENTESTQ” was “failed”; that for “MRNGRLLEACDDIPEEDIPSRRYEASMCYLRGLCYAKQNAFDRAKEAYKDALRIDVQCFEAFSQLVKNSLMSPDEEDEFMQSLAFDSIRAPGDDPDMEDEPADYVHMLYQTQLSKYRNPQAFNTAIESLSTHYGLENNADILLAKADLLYTQCRFKDALAITESILMDDKYNFAVYPIHLACLYELRKTNVLFLIAHELADTHPDEPCTWLAVGIYYFTTGKIADARRYFSKASMMDANFGPAWIGFAHTFAAEGEHDQAVTAYSTAARLFTGTHLPQVFLGMQNHAMNNMTAAEEFLKTAYSLCKTDPLLLNEMGIVLYHQDRLKEAVKMFDQVMAFGTAEMSRASEKRRMETMLSKLLQSLRPSTTSAIFSRRSTILPL” was “failed”. The value for “MRNHKQSDRVLNLPAGYFGIVLGTIGMGFAWRYASQIWGISHWPGDIMVILAMIIWALLTLAFLSRLVRFPHSVMAEVRHPVMSSFVSLFPATTMLVAIGFVPWYRPLAVALFSVGVVIQLAYAAWQTAGLWRGAHPEEATTPGLYLPTVANNFISAMACGALGYNDAGLVFLGAGVFSWLSLEPVILQRLRSCGELPAVLRTSLGIQLAPALVACSAWLSVNGGEGDTLAKMLFGYGLLQLLFMLRLMPWYLSQPFNASFWSFSFGVSALATTGLHLGHGSESGLFHILAVPLFIFTNAIIALLLVRTFLLLVQGTLLIRTERAALLKTEEKNDRS” was “failed”; that for “MRNKKLIPFEVIEKAVAGEPEAIELVLQHYSPRIKYLSKYRGYINDDIQDRLKTQLIKAILQFRFDR” was “failed”; that for “MRNMNIYDSLLGAVHSEYDVLMLIKKSERGEVSLVRHRDSGTRYIFRHFYGNSEVYQKLLNVSCPNLPQIMEVGEKDGKTALLEEYVQGDTLSEILEGGLLTIAESKQIARQLCSALWVFHSMGVVHRDVKPDNVIIRGKEAVLIDFDASRIYKSTIQEDTQILGTTGFAAPEQYGLSQSDGRADIYALGVLLNIMLTGEHPSRKLAGGRMGRIVQRCTMVNPSKRYKNILHLLEVL” was “failed”.

Consider “MRNPHSNGNLRKLEADGGGEATEENGFVNGVILGLDGGATSTVCVCVPFFSFGERFPDPLPILGRAVAGCTNRNSVGETAARDSLEQVISEALVQSGFDKSDVRGVCLGVSGVNHPSDQEKIENWIRDMFPSHVKVYVQNDAIVALASGTMGKLHGCVLIAGTGCIAYGFDEDGKEARASGGGPILGDWGSGYGIAAQALTAVIRAHDGRGPQTMLTSTILKALGLSSPDELIGWTYADPSWARIAALVPQVVSCAEAGDEISDKILVDAAEDLALSVKAVVQRLGLCGKDGTASFPVVMVGGVLNANQKWDIGKEVSKRINRYFPGAQTIIPKVEPAVGAALLAMNFLSS”, for which the protein production entry was “failed”. For the sequence “MRNPSEDHMMRTPYQIVADHYAASDRHDPAAMMADIAPAIEWTEMAGFPCAGTYRSADEIVRNVFRRLGEEWDGYTFKLDALHDAGDTVIGVGRYSGTYRRTGKSFECRVAHVWRVDAGKIVHFEQFTDTLLVAQAMQP”, the protein production result is on record as “not failed”. For “MRNQFDLELHELEQSFLGLGQLVLETASKALLALASKDKEMAELIINKDHAINQGQSAIELTCARLLALQQPQVSDLRFVISIMSSCSDLERMGDHMAGIAKAVLQLKENQLAPDEEQLHQMGKLSLSMLADLLVAFPLHQASKAISIAQKDEQIDQYYYALSKEIIGLMKDQETSIPNGTQYLYIIGHLERFADYIANICERLVYLETGELVDLN”, the protein production result is recorded as “not failed”.

For “MRNSMMTIYPHLIICPHCDSVHHYRALNPGEAARCTRCQATLYRSGWINTGHSLALIQTAAIVFFIANSYPVLTVSFHALQNTATLWQAALALANGATLPLAIGCFFILIMAPFLQIMLTGWVLMFANKDRCAPGFIPVMKILLWLRPWSMLEIATLGFLIAAIKLSGFMQVMPGAGCWALAALMLLLVVVNSIDLRPLWSLVPTDSNHSVVRHEK”, the protein production result is listed as “failed”. In the case of “MRNSNGGRDNRKSNRDQYRKPDYAGEMLFDDEEDYDDDADYDVVDDMKAHNDDYSDSAFGPDADNYDTDDDAWHDDVAAADDDPSDEDGYYDEEYDDTEDWQDMKDSKRKKKNRVWGIILALEIVTAIVIGVLFVKSYINNTYSKMQYNELKNTHINEDLNEESVKKMTGYTNIALFGIDTRDSGMVDDGVRSDSIIICSINNDTQEVKLLSVYRDTYLELCNDSQSYEKAAHAYAYGGAQGAVNMLNKNLDLNITDYVAVNFTALTEAIDALGGIDVELKEEELYKLNQCIDEQMGVNGIYSDYVYDTGVVHLNGVQATAYSRIRSTDEGDITRTWRQRTVISKMIEAAKSAGLSRLLDCINVVVDDVASSLTESEIMDMAKSCFNYKLSTTTGFPFTIASPTMNDVSYVVACDLATNATALHRFLFNDSNYTPSATVQNISDNIVNESGYGNQLDLDTFTVEDDVDSIVNTESDDY”, the protein production entry is “failed”.
